In paper PMC8219681, “Inhibition of MRN activity by a telomere protein motif” (Nature Communications, 2021):
Positions count from the first letter of the chain named. In names and notes the source's numbering stands.

T1: Xrs2 (S. cerevisiae, FLAG-tagged at the C terminus) (S. cerevisiae, UniProt P33301 1-854)
T1 construct: Xrs2, Saccharomyces cerevisiae; also called Xrs2-FLAG; not shown: FLAG, C-terminal, kept
T1 sequence (looked up): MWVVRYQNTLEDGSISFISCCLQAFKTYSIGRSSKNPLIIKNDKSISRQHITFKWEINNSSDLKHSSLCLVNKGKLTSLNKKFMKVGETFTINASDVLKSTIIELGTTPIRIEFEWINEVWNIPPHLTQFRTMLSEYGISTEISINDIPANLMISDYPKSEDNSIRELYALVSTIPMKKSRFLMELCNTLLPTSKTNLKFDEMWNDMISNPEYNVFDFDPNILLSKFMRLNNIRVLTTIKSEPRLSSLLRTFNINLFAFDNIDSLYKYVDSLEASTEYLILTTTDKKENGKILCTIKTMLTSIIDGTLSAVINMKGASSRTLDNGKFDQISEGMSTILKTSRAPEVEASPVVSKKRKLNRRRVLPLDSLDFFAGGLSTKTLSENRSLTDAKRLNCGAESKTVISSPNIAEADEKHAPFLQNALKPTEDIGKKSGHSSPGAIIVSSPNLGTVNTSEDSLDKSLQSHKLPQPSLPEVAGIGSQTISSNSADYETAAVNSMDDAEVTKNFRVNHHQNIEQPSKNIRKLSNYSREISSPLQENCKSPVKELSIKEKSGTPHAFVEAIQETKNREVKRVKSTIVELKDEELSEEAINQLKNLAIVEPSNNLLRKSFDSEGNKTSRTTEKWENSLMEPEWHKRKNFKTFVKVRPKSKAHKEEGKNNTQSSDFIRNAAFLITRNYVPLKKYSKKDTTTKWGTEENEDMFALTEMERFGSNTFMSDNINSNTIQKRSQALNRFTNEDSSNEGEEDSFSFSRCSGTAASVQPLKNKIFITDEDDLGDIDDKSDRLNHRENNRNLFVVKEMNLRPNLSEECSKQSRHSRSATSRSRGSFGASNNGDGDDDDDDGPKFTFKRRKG

T2: Rad50 (S. cerevisiae, FLAG-tagged at the C terminus) (S. cerevisiae, UniProt P12753 1-1312)
T2 construct: Rad50, Saccharomyces cerevisiae
T2 sequence (looked up): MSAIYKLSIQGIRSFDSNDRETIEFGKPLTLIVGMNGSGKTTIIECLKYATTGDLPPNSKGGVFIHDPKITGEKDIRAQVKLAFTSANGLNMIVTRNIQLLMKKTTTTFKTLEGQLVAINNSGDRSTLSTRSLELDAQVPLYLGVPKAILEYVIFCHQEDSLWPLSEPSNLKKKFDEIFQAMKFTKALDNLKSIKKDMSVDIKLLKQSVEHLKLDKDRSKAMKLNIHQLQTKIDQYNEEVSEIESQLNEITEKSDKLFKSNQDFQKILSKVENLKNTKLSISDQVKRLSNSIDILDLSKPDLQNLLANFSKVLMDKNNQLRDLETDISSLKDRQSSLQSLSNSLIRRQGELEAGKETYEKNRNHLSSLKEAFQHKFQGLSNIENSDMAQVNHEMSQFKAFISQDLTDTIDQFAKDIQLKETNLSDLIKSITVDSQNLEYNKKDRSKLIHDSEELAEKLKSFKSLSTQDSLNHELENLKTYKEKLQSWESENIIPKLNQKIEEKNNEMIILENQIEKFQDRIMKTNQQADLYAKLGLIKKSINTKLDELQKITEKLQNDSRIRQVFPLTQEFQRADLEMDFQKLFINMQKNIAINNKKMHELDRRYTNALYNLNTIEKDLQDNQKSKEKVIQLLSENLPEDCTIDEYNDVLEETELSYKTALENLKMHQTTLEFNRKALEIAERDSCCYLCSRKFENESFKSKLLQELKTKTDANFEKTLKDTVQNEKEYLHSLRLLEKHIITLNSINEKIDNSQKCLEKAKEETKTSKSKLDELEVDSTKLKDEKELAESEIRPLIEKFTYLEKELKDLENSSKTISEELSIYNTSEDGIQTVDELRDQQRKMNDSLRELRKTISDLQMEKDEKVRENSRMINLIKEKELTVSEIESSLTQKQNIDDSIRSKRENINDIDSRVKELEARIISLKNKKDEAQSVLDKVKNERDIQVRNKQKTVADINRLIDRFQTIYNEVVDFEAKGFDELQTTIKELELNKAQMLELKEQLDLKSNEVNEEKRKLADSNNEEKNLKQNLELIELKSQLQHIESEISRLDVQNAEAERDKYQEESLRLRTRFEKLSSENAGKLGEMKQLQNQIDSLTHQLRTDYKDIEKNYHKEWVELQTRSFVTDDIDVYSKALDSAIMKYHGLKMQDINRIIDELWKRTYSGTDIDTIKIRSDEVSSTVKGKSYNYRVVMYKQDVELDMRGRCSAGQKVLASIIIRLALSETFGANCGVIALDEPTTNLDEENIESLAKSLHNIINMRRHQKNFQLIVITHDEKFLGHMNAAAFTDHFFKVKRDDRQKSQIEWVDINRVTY

B1: MBP-Rif2 (S. cerevisiae Rif2, wild type) (natural protein, UniProt Q06208 1-395, looked up)
chain: MEHVDSDFAPIRRSKKVVDSDKIVKAISDDLEQKNFTVLRKLNLVPIKKSVSSPKVCKPSPVKERVDHVFYQKFKSMALQELGTNYLSISYVPSLSKFLSKNLRSMKNCIVFFDKVEHIHQYAGIDRAVSETLSLVDINVVIIEMNDYLMKEGIQSSKSKECIESMGQASYSGQLDFEASEKPSNHTSDLMMMVMRKINNDESIDHIVYFKFEQLDKLSTSTIIEPSKLTEFINVLSVLEKSNNIAFKVLIYSNNVSISSLLSTSLKKKLNTKYTVFEMPILTCAQEQEYLKKMIKFTFDSGSKLLQSYNSLVTCQLNNKESNLAIFFEFLKVFPHPFTYLFNAYTEIIVQSRTFDELLDKIRNRLTIKNYPHSAYNFKKNQRLPLKLTRKVHDR
notes: Rif2, Saccharomyces cerevisiae, full length, expressed from the vector pFB-MBP-Rif2-his; MBP was cleaved with PreScission protease only after elution from the resin; N-terminal place of MBP is read from the construct's name MBP-Rif2-his; also called ScRif2; not shown: MBP, N-terminal, kept
B2: MBP-Rif2-min (S. cerevisiae Rif2 F8E P10N) (natural protein, UniProt Q06208 1-395, looked up)
chain: B1 chain with F8E, P10N
notes: Rif2, Saccharomyces cerevisiae, full length, F8E P10N, expressed from the vector pFB-MBP-Rif2-min-his; MBP was cleaved with PreScission protease only after elution from the resin; N-terminal place of MBP is read from the construct's name; also called mutant Rif2; not shown: MBP, N-terminal, kept

Experiments:
[1] = target: T1, Xrs2 (S. cerevisiae, FLAG-tagged at the …); assay: pull-down; MBP-Rif2 or MBP-Rif2-min (~5 ug, from Sf9 lysate) immobilised on amylose resin and washed; 1 ug Mre11, 500 ng Rad50 or 1 ug Xrs2 added for 1 h in 50 mM Tris-HCl pH 7.5, 200 mM NaCl, 0.2% NP40, 2 mM EDTA; eluted with 20 mM maltose; Western blot; settings: both partners purified
[2] = target: T2, Rad50 (S. cerevisiae, FLAG-tagged at …); assay: as above; settings: both partners purified

Binder	binding result [1]	binding result [2]
B1	binds	binds
B2	binds	binds
